Patent US20200262867A1 (WNTRX PHARMACEUTICALS, published 2020)
Bridges are numbered along the chain shown (N, C = ends). Primed or numbered codes have the meaning given here. Where no end group is shown, it is not given here. Side-chain parts run from the residue outwards. [ ]: non-standard residue; d: D form. The star is where a group is joined. S5′ = (S)-2-(4'-pentenyl)alanine, olefinic stapling residue closed by ring-closing metathesis; NMeQ′ = N-methylglutamine (N-alpha-methyl, stereo named both D and L in the filing); PEG4″ = PEG4 (tetraethylene glycol) spacer; 2Nal = N[C@@H](Cc1ccc2ccccc2c1)C(=O)O; NMeH = CN[C@@H](Cc1c[nH]cn1)C(=O)O; NMeR = CN[C@@H](CCCNC(=N)N)C(=O)O; Palmitoyl = CCCCCCCCCCCCCCCC(=O)*; hArg = N=C(N)NCCCC[C@H](N)C(=O)O; tBuAla = CC(C)(C)C[C@H](N)C(=O)O; NMeQ = CN[C@@H](CCC(N)=O)C(=O)O; Cha = N[C@@H](CC1CCCCC1)C(=O)O; Cit = NC(=O)NCCC[C@H](N)C(=O)O; Cba = N[C@@H](CC1CCC1)C(=O)O; S5 = C=CCCC[C@](C)(N)C(=O)O; Nle = CCCC[C@H](N)C(=O)O; βAla = NCCC(=O)O

T1: β-catenin (UniProt P35222 1-781, limits assumed)
T1 construct: also called beta-catenin
T1 sequence (looked up): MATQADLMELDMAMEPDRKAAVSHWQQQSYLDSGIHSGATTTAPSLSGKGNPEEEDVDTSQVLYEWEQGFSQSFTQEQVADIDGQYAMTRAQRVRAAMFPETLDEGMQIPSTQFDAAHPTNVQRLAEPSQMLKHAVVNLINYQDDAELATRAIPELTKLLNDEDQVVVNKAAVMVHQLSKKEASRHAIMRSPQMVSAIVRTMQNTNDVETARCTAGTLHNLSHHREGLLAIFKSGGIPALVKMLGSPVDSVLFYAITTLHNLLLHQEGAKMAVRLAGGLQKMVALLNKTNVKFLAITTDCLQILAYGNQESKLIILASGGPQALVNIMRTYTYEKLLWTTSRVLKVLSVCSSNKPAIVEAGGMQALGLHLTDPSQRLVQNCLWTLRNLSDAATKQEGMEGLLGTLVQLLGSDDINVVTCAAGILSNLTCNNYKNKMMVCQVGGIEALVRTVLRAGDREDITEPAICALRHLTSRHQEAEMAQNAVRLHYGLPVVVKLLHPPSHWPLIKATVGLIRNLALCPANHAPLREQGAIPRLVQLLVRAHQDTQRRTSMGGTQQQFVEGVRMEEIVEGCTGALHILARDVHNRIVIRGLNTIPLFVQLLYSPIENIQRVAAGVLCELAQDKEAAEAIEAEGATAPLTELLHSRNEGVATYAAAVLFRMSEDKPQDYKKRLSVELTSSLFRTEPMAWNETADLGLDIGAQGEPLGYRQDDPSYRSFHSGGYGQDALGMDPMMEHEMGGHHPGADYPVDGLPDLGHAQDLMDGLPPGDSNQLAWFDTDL


These binders were tested against T1, β-catenin (assay: ALPHA Screen (BCL9/β-catenin);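 further: bead proximity readout with the polypeptide linked to donor beads and β-catenin fixed on acceptor beads, their binding bringing the beads close enough to emit signal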).
Source text: In this assay, a polypeptide is conjugated to a donor bead and its target protein (i.e., β-catenin) is attached to an acceptor bead. When the two beads are in proximity due to the binding of the polypeptide to the target protein, a signal is generated and the binding affinity of the polypeptide can be quantitatively calculated. The assay may be conducted in the presence or absence of an unconjugated control polypeptide.

Binder | IC50
LQTLRDIQRML[2Nal]P [SEQ ID NO: 55] | 30300 nM
Ac-[NMeH]RQRSLQTLR[S5]IQR[S5][Cha][2Nal]-NH2 (staple 11-15; SMILES CC[C@H](C)[C@@H]1NC(=O)[C@@](C)(NC(=O)[C@H](CCCNC(=N)N)NC(=O)[C@H](CC(C)C)NC(=O)[C@@H](NC(=O)[C@H](CCC(N)=O)NC(=O)[C@H](CC(C)C)NC(=O)[C@H](CO)NC(=O)[C@H](CCCNC(=N)N)NC(=O)[C@H](CCC(N)=O)NC(=O)[C@H](CCCNC(=N)N)NC(=O)[C@H](Cc2c[nH]cn2)N(C)C(C)=O)[C@@H](C)O)CCCC=CCCC[C@@](C)(C(=O)N[C@@H](CC2CCCCC2)C(=O)N[C@@H](Cc2ccc3ccccc3c2)C(N)=O)NC(=O)[C@H](CCCNC(=N)N)NC(=O)[C@H](CCC(N)=O)NC1=O) [SEQ ID NO: 215] | 9520 nM
EHRERSLQTLRDIQRML[2Nal] [SEQ ID NO: 63] | 2500 nM
RERSLQTLRDIQRML[2Nal] [SEQ ID NO: 59] | 5950 nM
HRERSLQTLR[Nle]IQR[Nle]L[2Nal] [SEQ ID NO: 62] | 840 nM
Ac-RE[S5]SLQ[S5]LR[S5]IQR[S5]L[2Nal][βAla][βAla]-NH2 (staple 10-14, 3-7; not fully specified; printed as REXaa1SLQXaa2LRXaa3IQRXaa4L(2-Nal)(β-Ala)(β-Ala)) [SEQ ID NO: 40] | 2380 nM
Ac-QLEHRERSL[S5]TLR[S5]IQRML[2Nal]-NH2 (staple 10-14; not fully specified; printed as QLEHRERSLXTLRXIQRML(2-Nal)) [SEQ ID NO: 36] | 940 nM
Ac-RE[S5]SLQ[S5]LR[S5]IQR[S5]L[2Nal]-NH2 (staple 10-14, 3-7; not fully specified; printed as REXSLQXLRZIQRZL(2-Nal)) [SEQ ID NO: 39] | 2200 nM
HRQRSLQTLR[S5]IQ[NMeR][S5][Cba][2Nal] (staple 11-15; not fully specified (residues 3, 7, N-terminus, C-terminus); printed as HR(N-methylQ)RSL(N-methylQ)TLRXIQ(N-methylR)X(CBA)(2-Nal), X/X stapled, (S) α-methyl, N-terminal Ac, C-terminal NH2) [SEQ ID NO: 164] | 1480 nM
Ac-EHRERSLQTLR[S5]IQR[S5]L[2Nal]-NH2 (staple 12-16; not fully specified; printed as EHRERSLQTLRXIQRXL(2-Nal)) [SEQ ID NO: 7] | 810 nM
Ac-EHQERSLQTLR[S5]IQR[S5]L[2Nal]-NH2 (staple 12-16; not fully specified; printed as EHQERSLQTLRXIQRXL(2-Nal)) [SEQ ID NO: 12] | 4160 nM
Ac-EHRERSLQTLR[S5′]IQR[S5′][Cba][2Nal]-NH2 (staple 12-16; not fully specified; printed as EHRERSLQTLRXIQRX(CBA)(2-Nal)) [SEQ ID NO: 9] | 1500 nM
RSLQTLRDIQRML[2Nal] [SEQ ID NO: 57] | 13600 nM
HRERSLQTLRDIQRML[2Nal] [SEQ ID NO: 61] | 1380 nM
Ac-LQTLR[S5]IQR[S5]L[2Nal][βAla][βAla]-NH2 (staple 6-10; not fully specified; printed as LQTLRXIQRXL(2-Nal)(β-Ala)(β-Ala)) [SEQ ID NO: 34] | 9620 nM
Ac-LQTLR[S5]IQA[S5]L[2Nal]AA-NH2 (staple 6-10; not fully specified; printed as LQTLRXIQAXL(2-Nal)AA) [SEQ ID NO: 27] | 6120 nM
LR[Nle]IQR[Nle]L[2Nal][βAla][βAla] [SEQ ID NO: 49] | 6710 nM
LQTLR[Nle]IQR[Nle]L[2Nal]P [SEQ ID NO: 56] | 10100 nM
RSLQTLR[Nle]IQR[Nle]L[2Nal] [SEQ ID NO: 58] | 2840 nM
RERSLQTLR[Nle]IQR[Nle]L[2Nal] [SEQ ID NO: 60] | 2420 nM

Continued, values first:

IC50 | Binder
573 nM | HRQRSLQTLXXIQRXAA (H(homoArg)QRSLQTL(Cit)XIQRX(Cha)(2-Nal); X/X stapled, (S) α-methyl; N-terminal Ac; C-terminal NH2) [SEQ ID NO: 223]
271 nM | Ac-HRQRSLQTLR[S5]IQ[NMeR][S5][Cha][2Nal]-NH2 (staple 11-15; SMILES CC[C@H](C)[C@@H]1NC(=O)[C@@](C)(NC(=O)[C@H](CCCNC(=N)N)NC(=O)[C@H](CC(C)C)NC(=O)[C@@H](NC(=O)[C@H](CCC(N)=O)NC(=O)[C@H](CC(C)C)NC(=O)[C@H](CO)NC(=O)[C@H](CCCNC(=N)N)NC(=O)[C@H](CCC(N)=O)NC(=O)[C@H](CCCNC(=N)N)NC(=O)[C@H](Cc2c[nH]cn2)NC(C)=O)[C@@H](C)O)CCCC=CCCC[C@@](C)(C(=O)N[C@@H](CC2CCCCC2)C(=O)N[C@@H](Cc2ccc3ccccc3c2)C(N)=O)NC(=O)[C@H](CCCNC(=N)N)N(C)C(=O)[C@H](CCC(N)=O)NC1=O) [SEQ ID NO: 190]
466 nM | {Palmitoyl-PEG4″}-L[NMeQ′]TLR[S5]IQR[S5][Cba][2Nal]-NH2 (staple 6-10; also: Q2 N-methyl: stated both D and L) [SEQ ID NO: 213]
791 nM | Ac-HRQRSLQTLR[S5]IQR[S5][Cba][2Nal]K([PEG4″-Palmitoyl])-NH2 (staple 11-15) [SEQ ID NO: 161]
253 nM | {Palmitoyl-PEG4″}-H[hArg]QRSLQTLR[S5]IQR[S5][Cha][2Nal]-NH2 (staple 11-15) [SEQ ID NO: 209]
322 nM | Ac-HRQRSLQTLR[S5]IQR[S5][tBuAla][2Nal]-NH2 (staple 11-15; SMILES CC[C@H](C)[C@@H]1NC(=O)[C@@](C)(NC(=O)[C@H](CCCNC(=N)N)NC(=O)[C@H](CC(C)C)NC(=O)[C@@H](NC(=O)[C@H](CCC(N)=O)NC(=O)[C@H](CC(C)C)NC(=O)[C@H](CO)NC(=O)[C@H](CCCNC(=N)N)NC(=O)[C@H](CCC(N)=O)NC(=O)[C@H](CCCNC(=N)N)NC(=O)[C@H](Cc2c[nH]cn2)NC(C)=O)[C@@H](C)O)CCCC=CCCC[C@@](C)(C(=O)N[C@@H](CC(C)(C)C)C(=O)N[C@@H](Cc2ccc3ccccc3c2)C(N)=O)NC(=O)[C@H](CCCNC(=N)N)NC(=O)[C@H](CCC(N)=O)NC1=O) [SEQ ID NO: 191]
354 nM | {Palmitoyl-PEG4″}-HR[NMeQ′]RSL[NMeQ′]TLR[S5]IQR[S5][Cha][2Nal]-NH2 (staple 11-15; not fully specified) [SEQ ID NO: 207]
742 nM | Ac-H[hArg]QRSLQTLR[S5]IQ[Cit][S5][Cha][2Nal]-NH2 (staple 11-15; SMILES CC[C@H](C)[C@@H]1NC(=O)[C@@](C)(NC(=O)[C@H](CCCNC(=N)N)NC(=O)[C@H](CC(C)C)NC(=O)[C@@H](NC(=O)[C@H](CCC(N)=O)NC(=O)[C@H](CC(C)C)NC(=O)[C@H](CO)NC(=O)[C@H](CCCNC(=N)N)NC(=O)[C@H](CCC(N)=O)NC(=O)[C@H](CCCCNC(=N)N)NC(=O)[C@H](Cc2c[nH]cn2)NC(C)=O)[C@@H](C)O)CCCC=CCCC[C@@](C)(C(=O)N[C@@H](CC2CCCCC2)C(=O)N[C@@H](Cc2ccc3ccccc3c2)C(N)=O)NC(=O)[C@H](CCCNC(N)=O)NC(=O)[C@H](CCC(N)=O)NC1=O) [SEQ ID NO: 222]
770 nM | Ac-QLEHRERSLQTLR[S5]IQR[S5]L[2Nal]-NH2 (staple 14-18; not fully specified; printed as QLEHRERSLQTLRXIQRXL(2-Nal)) [SEQ ID NO: 8]
323 nM | Ac-HR[NMeQ]RSLQTLR[S5]IQR[S5][tBuAla][2Nal]-NH2 (staple 11-15; also: N-methylglutamine 3: D or L (filing names both)) [SEQ ID NO: 193]
